The target in test [1] is T1, human IL-18BP (recombinant, construct not stated) (UniProt O95998 31-194).
T1 chain: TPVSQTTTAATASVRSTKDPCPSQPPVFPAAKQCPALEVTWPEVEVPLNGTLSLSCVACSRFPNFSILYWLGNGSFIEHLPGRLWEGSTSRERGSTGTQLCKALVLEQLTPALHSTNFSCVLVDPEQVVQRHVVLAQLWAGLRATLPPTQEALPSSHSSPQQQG
The test is described as follows: blocking ELISA. (An ELISA detects its analyte on a solid surface through an enzyme-linked reagent.)

The target in the next test is Cyno IL18-IL18BP (cynomolgus monkey). The test is described as follows: blocking ELISA.

B1: ADI-66692 (antibody, V domains shown)
VH: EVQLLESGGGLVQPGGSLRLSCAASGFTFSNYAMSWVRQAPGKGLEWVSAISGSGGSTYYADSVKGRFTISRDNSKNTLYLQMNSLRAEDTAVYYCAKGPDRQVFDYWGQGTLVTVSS
VL: DIQMTQSPSSVSASVGDRVTITCRASQGIDSWLAWYQQKPGKAPKLLIYAASSLQSGVPSRFSGSGSGTDFTLTISSLQPEDFATYYCQHAYSFPYTFGGGTKVEIK
A word on the IC50: it is the concentration needed to halve the response being measured. Turning to B1, the IC50 in test [1] was determined as 0.278 µg/mL.

B2: ADI-66716 (antibody, V domains shown)
VH: QLQLQESGPGLVKPSETLSLTCTVSGGSISSSDYYWGWIRQPPGKGLEWIGSIYYSGSTYYNPSLKSRVTISVDTSKNQFSLKLSSVTAADTAVYYCARGPHRQVFDYWGQGTLVTVSS
VL: DIQMTQSPSSVSASVGDRVTITCRASQGISSWLAWYQQKPGKAPKLLIYAASSLQSGVPSRFSGSGSGTDFTLTISSLQPEDFATYYCQQGSSFPYTFGGGTKVEIK
Consider B2, for which the IC50 in the test with Cyno IL18-IL18BP stood at 8.18 µg/mL; in test [1] it was 0.208 µg/mL.

Values taken from patent US20240425607A1 (published 2024).
